Reference: US20030229005
Several values for one entry are separate records, joined by “and”; a condition that tells them apart may be missing. Equal entries are not always repeated.

Assays:
[1] = tested on: Dab-SYPSGIHLC(Flu)LQR-NH2
[2] = tested on: Dnp-VC(Me)PKGITSC(Me)VFR-NH2
type IV collagen = type IV collagen (UniProt P08572)
[3] = tested on: Dabcyl-GPLGMRGC(Fluorescein)-NH2

Sequence of gelatinase B (chain, as listed by the source): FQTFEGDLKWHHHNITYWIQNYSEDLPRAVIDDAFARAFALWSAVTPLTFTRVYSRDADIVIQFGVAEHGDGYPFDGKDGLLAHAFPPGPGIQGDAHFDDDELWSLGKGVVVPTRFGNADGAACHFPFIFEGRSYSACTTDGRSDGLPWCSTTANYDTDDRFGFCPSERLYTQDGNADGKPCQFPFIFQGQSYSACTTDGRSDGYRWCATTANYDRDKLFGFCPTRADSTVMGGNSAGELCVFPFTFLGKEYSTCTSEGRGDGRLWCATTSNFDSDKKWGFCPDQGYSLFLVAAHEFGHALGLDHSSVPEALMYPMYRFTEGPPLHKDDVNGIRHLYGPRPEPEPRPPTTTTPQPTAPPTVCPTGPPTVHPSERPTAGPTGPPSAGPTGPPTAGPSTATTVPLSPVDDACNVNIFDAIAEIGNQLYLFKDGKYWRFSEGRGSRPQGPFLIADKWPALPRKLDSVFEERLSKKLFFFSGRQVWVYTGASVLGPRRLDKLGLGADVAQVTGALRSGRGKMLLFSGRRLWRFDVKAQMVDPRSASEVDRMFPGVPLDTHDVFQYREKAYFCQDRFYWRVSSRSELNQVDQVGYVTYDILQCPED
Sequence of type IV collagen (P08572 26-1712, chain 1 of 2): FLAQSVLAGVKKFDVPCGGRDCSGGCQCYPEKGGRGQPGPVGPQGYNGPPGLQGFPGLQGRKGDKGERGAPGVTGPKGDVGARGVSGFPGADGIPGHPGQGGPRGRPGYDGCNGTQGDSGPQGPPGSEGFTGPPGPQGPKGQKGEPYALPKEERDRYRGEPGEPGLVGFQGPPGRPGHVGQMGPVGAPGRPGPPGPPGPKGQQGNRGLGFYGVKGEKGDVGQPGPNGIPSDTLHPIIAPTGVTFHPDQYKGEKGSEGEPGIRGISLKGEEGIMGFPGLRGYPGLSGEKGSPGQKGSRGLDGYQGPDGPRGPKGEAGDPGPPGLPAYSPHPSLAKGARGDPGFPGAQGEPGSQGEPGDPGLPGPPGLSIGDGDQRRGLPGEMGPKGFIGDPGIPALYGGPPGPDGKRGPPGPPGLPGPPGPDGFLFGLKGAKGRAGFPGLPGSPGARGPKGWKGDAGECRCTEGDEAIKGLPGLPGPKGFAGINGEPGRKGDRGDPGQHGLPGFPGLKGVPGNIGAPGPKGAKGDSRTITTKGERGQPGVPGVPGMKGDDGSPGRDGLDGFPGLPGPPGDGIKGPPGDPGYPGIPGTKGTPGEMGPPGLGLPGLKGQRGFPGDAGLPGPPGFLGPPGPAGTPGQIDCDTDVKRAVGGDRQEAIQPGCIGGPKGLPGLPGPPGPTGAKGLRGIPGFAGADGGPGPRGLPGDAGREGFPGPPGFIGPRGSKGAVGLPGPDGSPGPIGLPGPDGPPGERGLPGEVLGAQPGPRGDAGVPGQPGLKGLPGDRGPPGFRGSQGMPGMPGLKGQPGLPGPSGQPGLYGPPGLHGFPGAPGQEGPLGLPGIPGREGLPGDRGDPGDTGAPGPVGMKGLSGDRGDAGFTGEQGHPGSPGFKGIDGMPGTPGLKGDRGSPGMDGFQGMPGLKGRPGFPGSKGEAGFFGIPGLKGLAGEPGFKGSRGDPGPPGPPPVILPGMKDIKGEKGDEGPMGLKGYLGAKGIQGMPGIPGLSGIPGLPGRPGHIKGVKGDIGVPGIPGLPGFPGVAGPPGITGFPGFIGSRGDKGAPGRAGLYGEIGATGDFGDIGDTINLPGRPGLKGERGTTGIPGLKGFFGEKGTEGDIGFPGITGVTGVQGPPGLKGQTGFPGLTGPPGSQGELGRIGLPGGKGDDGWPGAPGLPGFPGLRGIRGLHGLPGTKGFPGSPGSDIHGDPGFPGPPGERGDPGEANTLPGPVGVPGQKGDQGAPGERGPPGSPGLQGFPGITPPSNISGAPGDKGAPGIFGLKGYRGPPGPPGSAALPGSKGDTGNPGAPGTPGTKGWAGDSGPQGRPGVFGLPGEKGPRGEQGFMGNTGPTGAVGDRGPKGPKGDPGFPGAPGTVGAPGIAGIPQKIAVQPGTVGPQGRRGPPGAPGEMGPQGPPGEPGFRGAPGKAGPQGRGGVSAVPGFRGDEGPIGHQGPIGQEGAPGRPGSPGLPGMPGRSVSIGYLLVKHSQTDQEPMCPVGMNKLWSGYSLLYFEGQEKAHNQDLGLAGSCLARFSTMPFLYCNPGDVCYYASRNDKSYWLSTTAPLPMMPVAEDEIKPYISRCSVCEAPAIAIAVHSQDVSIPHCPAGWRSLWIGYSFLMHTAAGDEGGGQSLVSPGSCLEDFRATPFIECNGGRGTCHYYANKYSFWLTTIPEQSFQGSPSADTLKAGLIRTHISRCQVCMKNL
Sequence of type IV collagen (chain, as listed by the source, chain 2 of 2): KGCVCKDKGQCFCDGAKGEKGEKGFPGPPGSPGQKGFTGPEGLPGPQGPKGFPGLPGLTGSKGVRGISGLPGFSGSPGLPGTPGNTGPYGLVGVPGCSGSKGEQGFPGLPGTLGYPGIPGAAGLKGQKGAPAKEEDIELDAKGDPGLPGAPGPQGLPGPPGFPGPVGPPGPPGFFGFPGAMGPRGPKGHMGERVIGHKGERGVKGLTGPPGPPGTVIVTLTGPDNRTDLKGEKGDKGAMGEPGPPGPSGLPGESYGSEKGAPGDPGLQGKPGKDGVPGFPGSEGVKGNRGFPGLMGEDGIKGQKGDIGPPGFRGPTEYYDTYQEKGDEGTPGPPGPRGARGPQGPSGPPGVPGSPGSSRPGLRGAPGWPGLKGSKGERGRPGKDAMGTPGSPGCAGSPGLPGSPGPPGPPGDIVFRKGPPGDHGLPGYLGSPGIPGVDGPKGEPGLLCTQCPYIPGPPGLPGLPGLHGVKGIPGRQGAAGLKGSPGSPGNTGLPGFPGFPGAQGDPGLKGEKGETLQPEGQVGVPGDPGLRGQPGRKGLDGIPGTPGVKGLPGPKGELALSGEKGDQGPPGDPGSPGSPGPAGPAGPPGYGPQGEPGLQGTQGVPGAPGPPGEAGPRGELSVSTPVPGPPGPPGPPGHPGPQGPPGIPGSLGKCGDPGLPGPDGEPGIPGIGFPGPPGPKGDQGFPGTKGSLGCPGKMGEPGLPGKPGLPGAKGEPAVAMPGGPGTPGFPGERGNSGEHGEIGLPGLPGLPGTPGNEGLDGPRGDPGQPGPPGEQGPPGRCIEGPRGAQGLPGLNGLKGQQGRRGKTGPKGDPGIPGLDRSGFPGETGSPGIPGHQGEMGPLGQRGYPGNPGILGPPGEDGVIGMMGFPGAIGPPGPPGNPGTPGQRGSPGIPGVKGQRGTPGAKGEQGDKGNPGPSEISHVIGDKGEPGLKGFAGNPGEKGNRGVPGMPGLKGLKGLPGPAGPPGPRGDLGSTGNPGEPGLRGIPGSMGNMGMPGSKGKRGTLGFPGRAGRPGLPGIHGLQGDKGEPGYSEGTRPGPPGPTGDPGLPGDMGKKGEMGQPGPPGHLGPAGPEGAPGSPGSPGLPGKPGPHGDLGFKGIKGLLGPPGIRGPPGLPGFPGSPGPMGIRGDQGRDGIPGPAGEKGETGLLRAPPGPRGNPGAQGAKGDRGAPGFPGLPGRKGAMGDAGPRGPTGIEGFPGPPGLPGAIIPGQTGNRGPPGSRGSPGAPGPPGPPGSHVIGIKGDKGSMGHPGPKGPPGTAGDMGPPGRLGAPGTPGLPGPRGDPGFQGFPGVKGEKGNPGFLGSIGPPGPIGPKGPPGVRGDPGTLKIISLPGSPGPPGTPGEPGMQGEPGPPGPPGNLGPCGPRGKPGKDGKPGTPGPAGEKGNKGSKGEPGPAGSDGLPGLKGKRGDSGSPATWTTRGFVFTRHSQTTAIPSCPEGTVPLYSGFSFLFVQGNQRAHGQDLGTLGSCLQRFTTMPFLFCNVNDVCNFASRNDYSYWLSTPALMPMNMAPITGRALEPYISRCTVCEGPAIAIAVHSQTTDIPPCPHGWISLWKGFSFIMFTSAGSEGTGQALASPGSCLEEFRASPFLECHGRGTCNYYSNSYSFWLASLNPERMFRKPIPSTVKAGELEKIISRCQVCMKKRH

human Collagenase-3
Specificity Constant (kcat/Km) (Dnp-GPHPMRG-NH2): 2.33e+06 1/sM | Specificity Constant (kcat/Km) (Dnp-GPLSIQD-NH2): 868000 1/sM | Specificity Constant (kcat/Km) (Dnp-GPAPLHVC(Me)-NH2): 677000 1/sM | Specificity Constant (kcat/Km) (Dnp-PHPFRG-NH2): 230000 1/sM | Specificity Constant (kcat/Km) (Dnp-GPLPFRVC(Me)-NH2): 1.29e+06 1/sM | sensitivity for collagenase 3 against the consensus substrate FlSb1 [1]: 100-fold less sensitive for collagenase 3 compared to the consensus substrate | Specificity Constant (kcat/Km) (Dnp-GPLPFHVC(Me)-NH2): 598000 1/sM | Specificity Constant (Dabcyl-GPVNLHGC(Flu)-NH2): 421000 1/sM | Specificity Constant, 0.85 to 2.10 Hours, + 1.6 ug/ml TIICol (Dabcyl-GPVNLHGC(Flu)-NH2): 1.54e+06 1/sM | Specificity Constant, 0.85 to 2.10 Hours, + 4.9 ug/ml TIICol (Dabcyl-GPVNLHGC(Flu)-NH2): 1.88e+06 1/sM | Specificity Constant, 0.85 to 2.10 Hours, + 15 ug/ml TIICol (Dabcyl-GPVNLHGC(Flu)-NH2): 2.25e+06 1/sM | Specificity Constant, 0.85 to 2.10 Hours, + 44 ug/ml TIICol (Dabcyl-GPVNLHGC(Flu)-NH2): 2.55e+06 1/sM | Specificity Constant, 0.85 to 2.10 Hours, + .18 ug/ml TIICol (Dabcyl-GPVNLHGC(Flu)-NH2): 1.33e+06 1/sM | Specificity Constant, 0.85 to 2.10 Hours, + .55 ug/ml TIICol (Dabcyl-GPVNLHGC(Flu)-NH2): 1.47e+06 1/sM | Specificity Constant, 0.85 to 2.10 Hours, no TIICol (Dabcyl-GPVNLHGC(Flu)-NH2): 1.11e+06 1/sM | Specificity Constant, + Gel (Dabcyl-GPVNLHGC(Flu)-NH2): 471000 1/sM | Specificity Constant (kcat/Km) (Dnp-GPVNLHG-NH2): 1.15e+06 1/sM | Specificity Constant (kcat/Km) (Dnp-GPSPLHGC(Me)-NH2): 1.76e+06 1/sM | Specificity Constant (kcat/Km) (Dnp-GPSPFHVC(Me)-NH2): 338000 1/sM | Specificity Constant (kcat/Km), + 1:1 Gelatin (Dnp-GPLGMRG-NH2): 340000 1/sM | Specificity Constant (kcat/Km), + 1:4 Gelatin (Dnp-GPLGMRG-NH2): 562000 1/sM | Specificity Constant (kcat/Km), + 1:16 Gelatin (Dnp-GPLGMRG-NH2): 1.93e+06 1/sM | Specificity Constant (kcat/Km), + 1:64 Gelatin (Dnp-GPLGMRG-NH2): 2.67e+06 1/sM | Specificity Constant (kcat/Km), + 1:256 Gelatin (Dnp-GPLGMRG-NH2): 4.65e+06 1/sM | Specificity Constant (kcat/Km), + H2O (Dnp-GPLGMRG-NH2): 3.16e+06 1/sM | Specificity Constant (kcat/Km), substrate 5 uM (Dnp-GPVNFRVC(Me)-NH2): 2.57e+06 1/sM | Specificity Constant (kcat/Km) (Dnp-GPLGFRVC(Me)-NH2): 3.92e+06 1/sM | Specificity Constant (kcat/Km) (Dnp-GPSGIHV-NH2): 1.41e+06 1/sM | Specificity Constant (kcat/Km) (Dnp-DEGPMGLKC(Me)YLG-NH2): 528000 1/sM | Specificity Constant (kcat/Km) (Dnp-GPSELKG-NH2): 862000 1/sM | Specificity Constant (kcat/Km) (Dnp-GPAPFRVC(Me)-NH2): 1.76e+06 1/sM | Specificity Constant (kcat/Km) (Dnp-GPFGLKG-NH2): 1.28e+06 1/sM | Specificity Constant (kcat/Km) (Dnp-GPVNLHGRC(Me)-NH2): 1.04e+06 1/sM | Specificity Constant (kcat/Km) (Dnp-PINLHG-NH2): 377000 1/sM | Specificity Constant (kcat/Km) [2]: 1.54e+06 1/sM | Specificity Constant (kcat/Km) (Dnp-GPLQMRG-NH2): 885000 1/sM | Specificity Constant (kcat/Km) (Dnp-GPSGIHL-NH2): 284000 1/sM | cleavage seen on a gel (type IV collagen): type IV collagen digestion gave 3-4 detectable cleavage products (85 kDa, 80 kDa, 35 kDa and 28 kDa | Specificity Constant (kcat/Km) (Dnp-GPLGLHGC(Me)-NH2): 3.73e+06 1/sM | Specificity Constant (kcat/Km) (Dnp-GPAPFRGC(Me)-NH2): 1.14e+06 1/sM | Specificity Constant (kcat/Km) (Dnp-GPLSISG-NH2): 191000 1/sM | Specificity Constant (kcat/Km) (Dnp-PSGIHL-NH2): 91700 1/sM | Specificity Constant (kcat/Km) (Dnp-GPLGFRGC(Me)-NH2): 2.4e+06 1/sM | Specificity Constant (kcat/Km) (Dnp-GPVNLHGC(Me)-NH2): 813000 1/sM | Specificity Constant (kcat/Km) (Dnp-PLGMRG-NH2): 980000 1/sM | Specificity Constant (kcat/Km) (Dnp-GPLSFQG-NH2): 454000 1/sM | cleavage seen on a gel (biglycan): Cleavage of biglycan generated peptide fragments of 28, 17, 8, and 6 kDa | Specificity Constant (kcat/Km) (Dnp-GPSPFRGC(Me)-NH2): 1.3e+06 1/sM | Specificity Constant (kcat/Km) (Dnp-GPLQFRG-NH2): 705000 1/sM | Specificity Constant (kcat/Km) (Dnp-GPLPFRGC(Me)-NH2): 973000 1/sM | Specificity Constant (kcat/Km) (Dnp-GPLGLHVC(Me)-NH2): 4.46e+06 1/sM | Specificity Constant (kcat/Km) (Dnp-GPKGMRG-NH2): 2.32e+06 1/sM | Specificity Constant [3]: 4.4e+06 1/sM and 1.62e+06 1/sM | Specificity Constant, + Gel [3]: 1.74e+06 1/sM | Specificity Constant (kcat/Km) (Dnp-GPINLHG-NH2): 700000 1/sM | Specificity Constant (kcat/Km) (Dnp-GPKGITS-NH2): 734000 1/sM | Specificity Constant (kcat/Km) (Dnp-GPYGMRA-NH2): 5.66e+06 1/sM | Specificity Constant (kcat/Km) (Dnp-GPRPFRG-NH2): 634000 1/sM | Specificity Constant (Dabcyl-GPHPFRGC(Flu)-NH2): 32700 1/sM | Specificity Constant, + Gel (Dabcyl-GPHPFRGC(Flu)-NH2): 26900 1/sM | Specificity Constant (kcat/Km) (Dnp-GPMSYNG-NH2): 887000 1/sM | Specificity Constant (kcat/Km) (Dnp-GPAPLHGC(Me)-NH2): 1.69e+06 1/sM | Specificity Constant (kcat/Km) (Dnp-GPHPFRG-NH2): 900000 1/sM | Specificity Constant (kcat/Km) (Dnp-VTPYNMRG-NH2): 2.69e+06 1/sM | Specificity Constant (kcat/Km) (Dnp-GPLPLHGC(Me)-NH2): 1.1e+06 1/sM

gelatinase B
Selectivity v. Coll-3, substrate 5 uM (Dnp-GPVNFRVC(Me)-NH2): 217 unitless | cleavage seen on a gel (type IV collagen): Both collagenase 1 and gelatinase B processed type IV collagen under the conditions used in our experiments | cleavage seen on a gel (biglycan): stromelysin 1 and gelatinase B being able to degrade this proteoglycan

stromelysin 1
Selectivity v. Coll-3, substrate 5 uM (Dnp-GPVNFRVC(Me)-NH2): 400 unitless | cleavage seen on a gel (biglycan): stromelysin 1 and gelatinase B being able to degrade this proteoglycan
